Numbering of substitutions follows the chain as printed.
B1: VHH3.42 (VHH)
VHH: QVQLQESGGGLVQPGGSLRLSCAASGSAVSINDMGWYRQPPGKQRELVATITKTGSTNYADSVKGRFTISRDNAKNAVYLEMNSLKPEDTATYYCNAWLPYGMGPDYYGMELWGKGTQVTVSS
B2: VHH3.92 (VHH)
VHH: B1 VHH with S27K, N32S, S56N, V63A, K64Q, N76S, N83A, T92V
B3: VHH3.117 (VHH)
VHH: B1 VHH with S27K, N32S, V63A, K64Q, A74T, N76S, N83K, T92V

Assays:
BSA = target: T1, BSA (UniProt P02769 25-607); assay: ELISA, coated BSA
T1 construct: also called Bovine Serum Albumin

[1] = target: SARS-CoV-2 spike protein on VSV-delG pseudovirus particles or on cells (SARS-CoV-2, UniProt P0DTC2 14-1273); assay: cell-based or functional assay

T1 sequence (P02769 25-607 limits assumed): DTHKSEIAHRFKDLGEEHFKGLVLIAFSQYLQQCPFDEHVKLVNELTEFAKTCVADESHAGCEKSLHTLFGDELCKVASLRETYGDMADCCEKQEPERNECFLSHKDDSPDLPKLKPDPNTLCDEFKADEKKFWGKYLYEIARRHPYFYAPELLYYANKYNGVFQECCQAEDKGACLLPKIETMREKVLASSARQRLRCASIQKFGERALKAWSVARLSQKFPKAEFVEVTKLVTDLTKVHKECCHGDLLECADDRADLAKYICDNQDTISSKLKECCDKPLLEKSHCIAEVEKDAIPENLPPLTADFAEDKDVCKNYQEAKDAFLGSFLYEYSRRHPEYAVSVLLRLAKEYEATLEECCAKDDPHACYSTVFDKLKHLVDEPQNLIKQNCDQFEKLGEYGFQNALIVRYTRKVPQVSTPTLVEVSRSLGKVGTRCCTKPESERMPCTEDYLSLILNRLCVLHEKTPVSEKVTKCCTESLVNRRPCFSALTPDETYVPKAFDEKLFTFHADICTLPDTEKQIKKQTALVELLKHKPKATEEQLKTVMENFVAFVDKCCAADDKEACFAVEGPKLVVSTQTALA

| Binder | binding result (BSA) | neutralization relative to VHH72_h1_S56A [1] |
| --- | --- | --- |
| B1 | no binding | ~6 fold |
| B2 |  | ~6 fold |
| B3 | no binding | ~6 fold |
